Measurements: patent publication US20180155451A1 (published 2018)
Where a chain is given by its changes, count along the chain named. Names and notes keep the numbering of the source.

T1: FcgRIIb (human, UniProt P31994 43-217)
T1 construct: extracellular domain; also called FcγRIIb; not shown: His tag attached to the C terminus
T1 sequence (looked up): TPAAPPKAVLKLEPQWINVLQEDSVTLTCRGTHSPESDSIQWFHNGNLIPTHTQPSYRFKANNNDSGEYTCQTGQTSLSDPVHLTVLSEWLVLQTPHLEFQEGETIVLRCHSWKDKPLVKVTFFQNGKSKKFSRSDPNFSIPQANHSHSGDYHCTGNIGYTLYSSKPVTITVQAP

T2: FcγRIIb (human, UniProt P31994 43-217)
T2 construct: extracellular domain; also called FcgRIIb; 2b; not shown: His tag at the C terminus
T2 sequence (looked up): T1 sequence (looked up)

T3: FcgRIIa R (human, UniProt P12318 34-217)
T3 construct: extracellular domain; also called FcγRIIa R; FcγRIIa type R; not shown: His tag attached to the C terminus
T3 sequence (looked up): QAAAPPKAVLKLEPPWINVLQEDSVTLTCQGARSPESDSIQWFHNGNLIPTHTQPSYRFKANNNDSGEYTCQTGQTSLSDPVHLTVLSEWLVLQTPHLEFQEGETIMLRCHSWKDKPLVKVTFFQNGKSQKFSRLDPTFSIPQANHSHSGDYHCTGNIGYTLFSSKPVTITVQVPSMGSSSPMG

T4: FcgRIIa H (human, UniProt P12318 34-217)
T4 construct: extracellular domain; also called FcγRIIa H; FcγRIIa type H; not shown: His tag attached to the C terminus
T4 sequence (looked up): T3 sequence (looked up) with R134H

B1: H240-Kn061 (Y234E)/H240-Hl071/L73-k0 (antibody, human IgG1, kappa)
heavy 1: QDQLVQSGAEVKKPGASVKVSCKASGFNIKDTYIQWVRQAPGQGLEWMGRIDPLRKQTKYREKFEGRVTITADTSTNTAYMELSSLRSEDTAVYYCVRSGREFDYWGQGTLVTVSSASTKGPSVFPLAPSSKSTSGGTAALGCLVKDYFPEPVTVSWNSGALTSGVHTFPAVLQSSGLYSLSSVVTVPSSSLGTQTYICNVNHKPSNTKVDKKVEPKSCDKTHTCPPCPAPEEYWGPSVFLFPPKPKDTLMISRTPEVTCVVVDVSDEDPEVKFNWYVDGVEVHNAKTKPREEQYNATYRVVSVLTVLHQDWLNGKEYKCKVSNKALPAPIEKTISKAKGQPREPQVCTLPPSRDELTKNQVSLWCLVKGFYPSDIAVEWESNGQPENNYKTTPPVLDSDGSFFLYSKLTVDKSRWQQGNVFSCSVMHEALHNHYTQKSLSLSP
heavy 2: QDQLVQSGAEVKKPGASVKVSCKASGFNIKDTYIQWVRQAPGQGLEWMGRIDPLRKQTKYREKFEGRVTITADTSTNTAYMELSSLRSEDTAVYYCVRSGREFDYWGQGTLVTVSSASTKGPSVFPLAPSSKSTSGGTAALGCLVKDYFPEPVTVSWNSGALTSGVHTFPAVLQSSGLYSLSSVVTVPSSSLGTQTYICNVNHKPSNTKVDKKVEPKSCDKTHTCPPCPAPELLGGPSVFLFPPKPKDTLMISRTPEVTCVVVDVSHEDPEVKFNWYVDGVEVHNAKTKPREEQYNSTYRVVSVLTVLHQDWLNGKEYKCKVSNDALPMPIEETISKAKGQPREPQVYTLPPSRCELTKNQVSLSCAVKGFYPSDIAVEWESNGQPENNYKTTPPVLDSDGSFFLVSKLTVDKSRWQQGNVFSCSVMHEALHNHYTQKSLSLSP
light: DIQMTQSPSSLSASVGDRVTITCRASQDIHKYIAWYQQKPGQAPRLLIQYTSTLQPGVPSRFSGSGSGTDYTFTISSLQPEDIATYYCLQYEQLRTFGGGTKVEIKRTVAAPSVFIFPPSDEQLKSGTASVVCLLNNFYPREAKVQWKVDNALQSGNSQESVTEQDSKDSTYSLSSTLTLSKADYEKHKVYACEVTHQGLSSPVTKSFNRGEC
B2: H240-Kn061 (Y235P)/H240-Hl071/L73-k0 (antibody, human IgG1, kappa)
heavy 1: B1 heavy 1 with E233Y, Y234P
heavy 2: B1 heavy 2
light: B1 light
B3: H240-Kn061 (Y235I)/H240-Hl071/L73-k0 (antibody, human IgG1, kappa)
heavy 1: B1 heavy 1 with E233Y, Y234I
heavy 2: B1 heavy 2
light: B1 light
B4: H240-Kn061 (Y235Q)/H240-Hl071/L73-k0 (antibody, human IgG1, kappa)
heavy 1: B1 heavy 1 with E233Y, Y234Q
heavy 2: B1 heavy 2
light: B1 light
B5: H240-Kn061 (Y235V)/H240-Hl071/L73-k0 (antibody, human IgG1, kappa)
heavy 1: B1 heavy 1 with E233Y, Y234V
heavy 2: B1 heavy 2
light: B1 light
B6: GpH7-A5/GpH7-B3 variant K326_02A/GpL16-k0 (antibody, human IgG1, kappa)
heavy 1: not shown
heavy 2: not shown
light: DIVMTQSPLSLPVTPGEPASISCQASESLVHSNRNTYLHWYLQKPGQSPQLLIYKVSNRFSGVPDRFSGSGSGTDFTLKISRVEAEDVGVYYCSQNTHVPPTFGQGTKVEIERTVAAPSVFIFPPSDEQLKSGTASVVCLLNNFYPREAKVQWKVDNALQSGNSQESVTEQDSKDSTYSLSSTLTLSKADYEKHKVYACEVTHQGLSSPVTKSFNRGEC
notes: heterodimerized IgG1; alteration in the GpH7-B3 H chain only; also called He Ab
B7: GpH7-A5/GpH7-B3 variant K326_06M/GpL16-k0 (antibody, human IgG1, kappa)
heavy 1: not shown
heavy 2: not shown
light: B6 light
notes: as for B6
B8: GpH7-A5/GpH7-B3 variant H268_18N/GpL16-k0 (antibody, human IgG1, kappa)
heavy 1: not shown
heavy 2: not shown
light: B6 light
notes: as for B6
B9: GpH7-A5/GpH7-B3 variant H268_10E/GpL16-k0 (antibody, human IgG1, kappa)
heavy 1: not shown
heavy 2: not shown
light: B6 light
notes: as for B6
B10: GpH7-A5/GpH7-B3 variant K326_04F/GpL16-k0 (antibody, human IgG1, kappa)
heavy 1: not shown
heavy 2: not shown
light: B6 light
notes: as for B6
B11: GpH7-A5/GpH7-B3 variant K326_03V/GpL16-k0 (antibody, human IgG1, kappa)
heavy 1: not shown
heavy 2: not shown
light: B6 light
notes: as for B6
B12: GpH7-A5/GpH7-B3 variant H268_13S/GpL16-k0 (antibody, human IgG1, kappa)
heavy 1: not shown
heavy 2: not shown
light: B6 light
notes: as for B6

target: T1, FcgRIIb; assay: SPR (Biacore); KD of H240-Kn061/H240-Hl071/L73-k0 divided by KD of the variant

Row | Binder | Relative KD
1 | B1 | 0.5
2 | B2 | 0.5
3 | B3 | 0.2
4 | B4 | 0.1
5 | B5 | 0.2

target: T5, FcgRIIIa V (human, UniProt P08637 17-208); assay: as above
T5 construct: extracellular domain; also called FcγRIIIa V; not shown: His tag attached to the C terminus
T5 sequence (P08637 17-208 F176V limits assumed): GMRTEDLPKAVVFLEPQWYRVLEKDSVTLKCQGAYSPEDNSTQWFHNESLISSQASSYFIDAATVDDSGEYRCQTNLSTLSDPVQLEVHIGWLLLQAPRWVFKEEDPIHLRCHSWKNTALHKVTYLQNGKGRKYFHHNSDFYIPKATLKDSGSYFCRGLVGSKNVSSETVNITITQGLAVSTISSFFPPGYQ

Row | Binder | Relative KD
6 | B1 | 1.6
7 | B2 | 1.5
8 | B3 | 1.6
9 | B4 | 1.3
10 | B5 | 1.3

target: T6, FcgRIIIa F (human, UniProt P08637 17-208); assay: as above
T6 construct: extracellular domain; also called FcγRIIIa F; 3aF; not shown: His tag attached to the C terminus
T6 sequence (P08637 17-208): as the sequence (P08637 17-208 F176V limits assumed) above, with V160F counted along it

Row | Binder | Relative KD
11 | B1 | 1.9
12 | B2 | 1.1
13 | B3 | 1.3
14 | B4 | 1
15 | B5 | 1.2

target: T7, FcγRIa (human, UniProt P12314 16-292); assay: SPR (Biacore), antibody captured, FcγR as analyte; binding as % of GpH7-A5/GpH7-B3/GpL16-k0
T7 construct: extracellular domain; also called FcgRI; 1a; not shown: His tag at the C terminus
T7 sequence (P12314 16-292): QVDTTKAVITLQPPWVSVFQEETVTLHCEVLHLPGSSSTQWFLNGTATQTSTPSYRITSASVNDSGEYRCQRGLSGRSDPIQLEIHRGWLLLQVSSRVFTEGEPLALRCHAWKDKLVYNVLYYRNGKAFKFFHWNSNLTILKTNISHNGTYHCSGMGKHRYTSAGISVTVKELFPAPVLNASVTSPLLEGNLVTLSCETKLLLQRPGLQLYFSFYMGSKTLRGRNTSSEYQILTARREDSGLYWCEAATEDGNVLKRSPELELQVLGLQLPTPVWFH

Row | Binder | He/Con_1a
16 | B6 | 102 % of control
17 | B7 | 102 % of control
18 | B8 | 108 % of control
19 | B9 | 111 % of control
20 | B10 | 102 % of control
21 | B11 | 102 % of control
22 | B12 | 109 % of control

target: T2, FcγRIIb; assay: as above

Row | Binder | He/Con_2b
23 | B6 | 139 % of control
24 | B7 | 165 % of control
25 | B8 | 156 % of control
26 | B9 | 230 % of control
27 | B10 | 155 % of control
28 | B11 | 175 % of control
29 | B12 | 160 % of control

target: T3, FcgRIIa R; assay: SPR (Biacore); KD of H240-Kn061/H240-Hl071/L73-k0 divided by KD of the variant
Experimental: (§1) The antibodies were assessed for the binding to each FcgR. […] The resultant value was defined as relative KD, and used as an assessment indicator.
(§2) Analysis of interaction between obj ective antibody and the FcγR was carried out using Biacore T100 (GE Healthcare), Biacore T200, Biacore A100, and Biacore 4000. HBS-EP+ (GE Healthcare) was used as the running buffer, and the measurement temperature was set to 25° C. Chips produced by immobilizing the antigen peptide by the amine coupling method to a Series S sensor Chip CM5 (GE Healthcare), chips produced by allowing preliminarily biotinylated antigen peptides to interact with and immobilize onto a Series S Sensor Chip SA (certified) (GE Healthcare), chips produced by immobilizing Protein L (ACTIGEN, BioVision) to Series S Sencor Chip CM5 (GE Healthcare), or chips produced by immobilizing Protein A/G (Thermo Scientific) to Series S Sencor Chip CM5 (GE Healthcare) were used. Antibodies of interest were captured onto these chips, and allowed to interact to each FcγR diluted with running buffer.

Row | Binder | Relative KD
30 | B1 | 1.4
31 | B2 | 0.6
32 | B3 | 0.7
33 | B4 | 0.8
34 | B5 | 0.5

target: T1, FcgRIIb; assay: as above; remark: another data set of the same source
Experimental: as §1, §2

Row | Binder | Relative KD
35 | B1 | 0.5
36 | B2 | 0.5
37 | B3 | 0.2
38 | B4 | 0.1
39 | B5 | 0.2

target: T5, FcgRIIIa V; assay: as above; remark: another data set of the same source
Experimental: as §1, §2

Row | Binder | Relative KD
40 | B1 | 1.6
41 | B2 | 1.5
42 | B3 | 1.6
43 | B4 | 1.3
44 | B5 | 1.3

target: T6, FcgRIIIa F; assay: as above; remark: another data set of the same source
Experimental: as §1, §2

Row | Binder | Relative KD
45 | B1 | 1.9
46 | B2 | 1.1
47 | B3 | 1.3
48 | B4 | 1
49 | B5 | 1.2

target: T4, FcgRIIa H; assay: as above
Experimental: as §1, §2

Row | Binder | Relative KD
50 | B1 | 0.7
51 | B2 | 0.4
52 | B3 | 0.4
53 | B4 | 0.4
54 | B5 | 0.4

target: T7, FcγRIa; assay: SPR (Biacore); He/Con_1a (FcγRIa) divided by He/Con_2b (FcγRIIb)

Row | Binder | Ia/IIb He_1a/2b
55 | B6 | 0.73 ratio
56 | B7 | 0.62 ratio
57 | B8 | 0.69 ratio
58 | B9 | 0.48 ratio
59 | B10 | 0.66 ratio
60 | B11 | 0.58 ratio
61 | B12 | 0.68 ratio
